Test results as given in a protein production outcome set (Wang et al. 2014).

Experiment: label from the status in PepcDB records

Sequence: VTVTDDYLANNVDYASGFKGPLPMPPSKHIAIVACMDARLDVYRMLGIKEGEAHVIRNAGCVVTDDVIRSLAISQRLLGTREIILLHHTDCGMLTFTDDDFKRAIQDETGIRPTWSPESYPDAVEDVRQSLRRIEVNPFVTKHTSLRGFVFDVATGKLNEVTP
- protein production: not failed

Sequence: MSQELKNKVQFLAKELNQLVNILYEESKKQTPLTLWLLCKNTFVYLYRTVKTVRGVAGVLLVLVPGSLMAYTTDAFRAIGELPWTSITVLLGGMSFFLFAYLRHLVLDEMSRPGSDLFHIQVYEKRKPDEYMSLIALAKERDYVESIAADIEQVTSTPSLPNLLELLKEKEQDIEEKDRVIEDLLEIVEDNEEHTLMFKEKYEILLDFVFQLKSKLNLLVHDQFSLDSIDFGSDYSLYKVGEEGLEFVDSYGVNKAEMEDFIPFTEKGNPYILAIERDYKDPLKVGDLISWKRTLQDGSQWVLSLHLNENSREKLNDVTESGKLNVTITQELLWICCELLNKFSPNPTKKGEE
- protein production: failed

Sequence: MKRKLTTKFIESQKPNPSKRLDFRDELMPGLVLRISTSGTKTFCLHKRISGKMRRLTIGRFGVVSLAEARERVRKVLYEIETGRFEDRTGVEVETKPTLGDVIPDYIEKHAKVHNRDWKRKEALLAKFAALHVKRIDEIKRADVVKACDLIHKSAPVSANRALAHLKHLMGWCVERGMIDASPIAGMKPLSKERSRERVLTDDELGALWTACDAEGYPFGDCMKLLILSGQRRAEVAEMRWTELDLEKRLWTLPSQRAKNGRQHTVPITDAMIDVLRRVPRFLGSDYVFTTTGKSPVSGFGRLKDRLDKALPEGTEPWIIHDLRRTMSTNMAMLGVPQPVTEALLNHKTGVVSGVAAIYNVYSYTDEKCEALEQWNRHLTKMTQGHSDRLAGKMSAQFSA
- protein production: failed

Sequence: MKILKKIFQVIVKIINHCVPVDSRSLYFIPHPNCRTDKYDIINYSSDNVLVLLNYLLKKDSAEYYKIYVEIYDSSRISEYQEYIYGINPNIRCTFLCACVGRFFFNKVSFKDMLYAFFCFCRASKCFTATFYYDFSFKKRSQQIICLGYYTPFKDDYHMGDHSYDKFRNTTCNSFDYSIATSCLSARIISIDCGISYDKFKVLGFPRNDLLISKNNCNVIKREISKFAGYDVTKYIVYTPTFRDYETVTEGNLRSILGYVDCDLLKLSKILLKFNAALILKLHPLQNKTVLKKDLPKGILVFEQTYKYGLYDLLSFSDGMITDYTSTYFDFLLVNKPVIFNFYDIEEYRRVRGFSFEPIEFFCAGDIVYNYNELIDAVMGLLAGKDIHAEHRRHISLLMNQFQDDNSTKRICDIFLNEILEHHHHHH
- protein production: failed

Sequence: MARSRVAGSKEAGPKVAGSRSRAAGQGRVGARLADGLRAYRMIAGMWIRSTMAYRASFVMTTFGNFGATALDFVAILLMFSQVDALGGYTLPEIAFLYGVAGIAFGLADLAIGSMDRLGRRVRDGTLDTLLVRPAPVLAQVAADRFALRRLGRITQGLLVFGYAVAALDIAWTPLKVLMVPFMMLSGGAIFAAVFVAGGAFQFVAQDASEVQNSFTYGGQTLLQYPPTVFAADLVRGVTFVVPIAFVNWLPALYVLGRPYPLDLPTWVAFTPPLVAAACCALAGLAWRAGLRSYRSTGS
- protein production: failed

Sequence: MSDFVNGFWSYFIGIIAIGGIVWCVWLLYSQRRWLSTRPAGGVVEDTGHVWDGDLTELNNPVPRWWTWMYLLTCVFALGYLVLFPGVGSYQGTLGYTSVGEVKQKQAELAERVKPVYERFGGMTPEQLVADAPAREIGQRLFLNTCAQCHGSDAKGSTSFPNLTDGDWLYGGTPEIIAETIAKGRHGVMPPWKGVIDPRMAGDIAHYVRSLSGLAVDPVRVFRGKREFANYCVACHGVDAKGNQALGAPNLTDDVWLYGSSEASIVRTILDGRDNRMPAHEEVLTPEQIKLLSAWVWGLSNQAPAKAAEAAR
- protein production: failed

Sequence: MDRKLLHLLCSPDTRQPLSLLESKGLEALNKAIASGTVQRADGSIQNQSLHEALITRDRKQVFRIEDSIPVLLPEEAIATIQIANFPDKLEHHHHHH
- protein production: not failed

Sequence: MKKILFCLPLLLLALQSCEIEDEYMYDKGLYTIDWDAAADSSSVTLIDRFWNTEENYFNYGNDGSIKDFHYWPQAHAMDVMIDAYNRTGDSKYSDLFDKWYVGIKAKNGGSYWNNFYDDMEWIALTMIRLYEVTDENKYLETSQEMWNEIKTGWNDYAGGGIAWTHDQLWSKNACSNGPAALIAARLYRINGNQEDLDWAVNIYKWERENLFNPATGAIYDNVNGETGELSTLSLSYNQGTFLGAAYELYKITGEESYLKDARKAANFAISNSSMIDTGNNLLRDEGDGDGGLFKGIFMRYYVQLIMEPNLDPIYKKKFITFFNNNAEILWRKGINKLDLLYNTNWAMNNSGNNHLTTQTSGCTLIEAKALFEKSLK
- protein production: failed

Sequence: MLKSCPMNPRLDALHPYPFEKLRALLADAGKPTHDLPPINLSIGEPKHAAPACVGQAIAANLAGLSVYPSTKGEPALRQAISQWLSRRYSIPAPDPESEVLPVLGSREALFAFAQTVIDPSAGALVVCPNPFYQIYEGAALLAGATPYYVNADPARDFGCDWARVPDEVWRRTQLVFVCSPGNPAGNVMSLEEWRTLFELSDRHGFVIAADECYSEIYLDEDNPPLGSLQAARRLGRDRYTNLVAFSSLSKRSNVPGMRSGFVAGDAALLARFLLYRTYHGSAMSPVVSAASIAAWSDETHVQENRRQYRAKFEAVLPILQNVLDVRAPQASFYLWAGTPGSDTAFARELYGRTGVTVLPGSLLAREAHNANPGQGRIRIALVAPLDQCVQAAERIAHFARTSI
- protein production: failed

Sequence: MPSKQDVLLLDYWDQWAEAYRINGKSINTVYRYKLFRKHLKSRFDGRKLNSIRPIEWQKFINDFAAGKDRKEKTTRKRPRERSKDIVTKMNSYVRGMVKAAINERILFSDFTFGTKTSGVRSSGKVKVLEHHHHHH
- protein production: not failed

Sequence: MNYHWSDHPDPNKWADCVHCGMCLEACPTYELTGHEQQSPRGRVHLIKSVAEGKLEVNEAFADPVFTCLDCRACETACPADVEVGGLIEEARGQIRQALPLSGWKLEHHHHHH
- protein production: failed

Sequence: MEVKYLKDSEFLVLLLITTFVVITNVYFIAWDDSPQSWDPALHLTYSFVYFNLIKSLQFSEIVKVSNYYPPFFYLSSTPLYFLFGFSEDIAILTNLIYYFILIYSVFQIAKIMKDRNAGVISAVIISAFPALIKFQRVYMIDFALLSLTAFAILLYLRSEDFRNLKYSVLFGIVFGIAELTKWNAFVYIIPSIFALFLVNYFMRCPYCHQIVKNGWKVGYRRFCSKKHLKLYEKSAKTNNTMLNFAISLFVAFLFAAWWYLPNLSTVIMRLTYFANIGGKEGDPAFLTIQGWIYYANSILDAVGAVFLILFAVSIYYLYKNNRYLFLGLLTPIALIYIILTLLSNKDPRYIMPVLPFVAISIGVFVSSLANRKYSTILTFIILLFGLLNISALTFGQPDIDNKILPNPEHPKKEDWKIYALLEAIKESGGEGKIVVVLPDHPYLNGQSLNFYRLKEGYKFAIYNGVYIGYEAFVHNFDKITYIILIEPREHKGVYGDIEKKLYEFFYERKDNFEVVKVFDLPDNSKLYIYKRT
- protein production: failed

Sequence: GLGGFTRTRNKGKSNVIDMIQKYIESKGMPIENWDITVGYCTNLEEAEKYRDDVEAQLGVKLLERREDFKTRISIISGCHTGPYALGIACIPKYTTIRL
- protein production: not failed

Sequence: MGHHHHHHSHMDALSPSPAIPSNTDYPGPHSFDVSFQQSSTAKSATWTYSTELKKLYCQIAKTCPIQIKVMTPPPQGAVIRAMPVYKKAEHVTEVVKRCPNHELSREFNEGQIAPPSHLIRVEGNSHAQYVEDPITGRQSVLVPYEPPQVGTEFTTVLYNFMCNSSCVGGMNRRPILIIVTLETRDGQVLGRRCFEARICACPGRDRKADEDSIRKQQVSDSTKNGDGTKRPFRQNTHGIQM
- protein production: failed

Sequence: MGPLLVWHRGDLRLHDHPALLEALARGPVVGLVVLDPNNLKTTPRRRAWFLENVRALREAYRARGGALWVLEGLPWEKVPEAARRLKAKAVYALTSHTPYGRYRDGRVREALPVPLHLLPAPHLLPPDLPRAYRVYTPFSRLYRGAAPPLPPPEALPKGPEEGEIPREDPGLPLPEPGEEAALAGLRAFLEAKLPRYAEERDRLDGEGGSRLSPYFALGVLSPRLAAWEAERRGGEGARKWVAELLWRDFSYHLLYHFPWMAERPLDPRFQAFPWQEDEALFQAWYEGKTGVPLVDAAMRELHATGFLSNRARMNAAQFAVKHLLLPWKRCEEAFRHLLLDGDRAVNLQGWQWAGGLGVDAAPYFRVFNPVLQGERHDPEGRWLKRWAPEYPSYAPKDPVVDLEEARRRYLRLARDLARG
- protein production: not failed

Sequence: MFVLKNFKIVFSYFPIVLQYILNVALICLGVVLSVFLMKEVIQFMQELKLDGNESSYHLIDSIVVFFLYFEFIVMIIKYFQMNFHFPLRYFIYIGITAIVRLIIIDHDSPLDLLLYACAIFVLISALFIANSKMMRWDLE
- protein production: failed

Sequence: MRIRLLGGLEVMSREHRQVRFTTRKTSLLFAALVLGGRRGYRRELLSETFWPGRSNEQARNSLRQALVDIRRSFPAGGDAPVYIDGDQETVALITGPDETDISIFDRKLEAGRTADLAFAADLYRGEVLAGEAIPDELDEWFGPYRSTYQRKALQLVERLSQALSEPGTAEESACEGLAERLLAMDPTVEAAHRALMQIHALRGHENAALRQFEACRALLRKHLQAEPEAETSSLAASLQSRQGSEHRRTTPGPDPVPQPQAISAPAKHHDRPSVAVLPFQNLSGDAEQEYFADGIVEDITIALAQFRHLYVIARNSSFTYKGQAVDIKQVGRELDVRYVVEGSVRRTGDRLRIAGQLIDTSTGTHLWADRFDGTLANVFDLQDQVASSIVGAITPKVEEAEIERAKRKPTESLDAYDYYLRGLAAFDRTVTNRSVIDEALRLFREAIERDPEFAVAHARAARCYATRKSNGWMLNPADETAEATRLARRAVELGWDDAVALTYGGYVIGYVGGDLDDSAACIDRAVSLNPNLAAALGVSSWVKVCLGEPDKAIEHATLAMRLSPLDPRLFAWQFNIGLAHFCAGHYDDAAVWAGKSLRHQLNYPSAMRVMAASQAMAGRLAQARETIARLCLMDPALRLSNLADVLPPFRRPDDRNRYIEALRMAGLPE
- protein production: failed

Sequence: MIVMSKNVDEAISRKEEKCIMSFIPNMITIANFVCGLLAIYAVFVHDIYLGAVFIITGMLFDFFDGMVARKLDSVSEIGGELDSFADLVTFGVAPSILAYSASLKDLQSIGMICALTYSICGMLRLARFNTQQSKLPTFIGMPIPFAAMCLLILCFLKNPVSVAFGTCVLAYLMVSKIKFPHFKKDIAESLKPGRLD
- protein production: failed

Sequence: MNQPSSLAADLRGAWHAQAQSHPLITLGLAASAAGVVLLLVAGIVNALTGENRVHVGYAVLGGTAGFAATALGALMALGLRAISARTQDAMLGFAAGMMLAASAFSLILPGLDAAGTIVGPGPAAAAVVALGLGLGVLLMLGLDYFTPHEHERTGHQGPEAARVNRVWLFVLTIILHNLPEGMAIGVSFATGDLRIGLPLTSAIAIQDVPEGLAVALALRAVGLPIGRAVLVAVASGLMEPLGALVGVGISSGFALAYPISMGLAAGAMIFVVSHEVIPETHRNGHETTATVGLMAGFALMMFLDTALG
- protein production: failed

Sequence: MSLPHLSSGEVASVLPLGKQLTQTPSAALFKEHRLEVMRMVLPAGKQVGSHSVAGPSTIQCLEGEVEIGVDGAQRRLHQGDLLYLGAGAAHDVNAITNTSLLVTVVLVDRGGS
- protein production: not failed

Sequence: MPALITYRTTVQEDWVDYNGHLRDAFYLLIFSYATDALMDRIGLDADSRGQSGNSLFTLEAHINYLHEVKLGTEVWVQTQILGFDRKRLHVYHSLHRAGFDEVLAASEQMLLHVDLAGPQSAPFGHTTVCRLNHLVEQQEGAQAPQYMGRTIKLPA
- protein production: not failed

Sequence: SASKRWSPPRGIHFTVEEGDLGFTLRGNTPVQVHFLDPHCSASLAGAKEGDYIVSIQGVDCKWLTVSEVMKLLKSFGGEEVEMKVVSLLDSTSSMHNK
- protein production: not failed
